{
  "source": "patent US20130280250A1",
  "about": "(published 2013)",
  "target": "T1, CD20 (human, UniProt P11836 1-297)",
  "T1 construct": "whole, on cells; also called CD20 on live cells; CD20 on Daudi and Raji cells",
  "T1 sequence (looked up)": "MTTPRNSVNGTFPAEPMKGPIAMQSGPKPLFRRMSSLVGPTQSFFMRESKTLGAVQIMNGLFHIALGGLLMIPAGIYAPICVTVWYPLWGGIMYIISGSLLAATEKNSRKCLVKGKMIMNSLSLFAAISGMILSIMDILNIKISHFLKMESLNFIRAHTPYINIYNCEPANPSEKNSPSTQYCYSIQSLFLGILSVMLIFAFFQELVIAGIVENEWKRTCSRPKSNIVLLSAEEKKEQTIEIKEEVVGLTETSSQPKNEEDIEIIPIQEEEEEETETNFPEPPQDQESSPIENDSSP",
  "experiment": "Scatchard analysis, radio-iodinated sample on Raji cells; apparent association constant",
  "data": [
    {"binder": "veltuzumab (hA20) (antibody, V domains shown) VH: QVQLQQSGAEVKKPGSSVKVSCKASGYTFTSYNMHWVKQAPGQGLEWIGAIYPGMGDTSYNQKFKGKATLTADESTNTAYMELSSLRSEDTAFYYCARSTYYGGDWYFDVWGQGTTVTVSS VL: DIQLTQSPSSLSASVGDRVTMTCRASSSVSYIHWFQQKPGKAPKPWIYATSNLASGVPVRFSGSGSGTDYTFTISSLQPEDIATYYCQQWTSNPPTFGGGTKLEIK", "values": [
      {"measurement": "Ka", "result": "1e+08", "unit": "M⁻¹"}
    ]}
  ]
}
